# Assay results published in the DeepSol protein solubility set.
# Assay: soluble on expression in E. coli; label from the status in PepcDB or PDB records
row,Sequence,soluble on expression in E. coli
1,MDMELTYIYHSGFALSGDGFTVIMDYYRDSEDGQAQADLNRLMDGTFSNQEAGMPEGTVHSELLRRPGKLYVLASHFHPDHFNKEVLQWREQRPDIIYIFSKDILRHRRAQKEDAVWLKKGEEYKDETLSVRAFGSTDVGVSFLLQTGGKKIFHAGDLNNWHWMDESTEAEWKGAEKNFLHELDDLYAYTPEVDVAMFPVDPRLGKEYMRGAGQFVTKIKTHIFVPMHFTPEYAKANAFRDFAEAHGVRFVSLTHRGQKIEIE,soluble
2,MDNELTSRPDSIMDTEPTTLPDSAMDTKPTNLPDFPSTSQEPVSRRTRSRTLSDNSNAVWKRERRSRETSQESESRLRMDWERKKEKRASMSEEEKAEMKYKKRVWMKKKRNEVAKTHDTSSVANPNYLGSMRCVCKNCNARFFQGIHFFKV,not soluble
3,MDNFENLSTKDSFPEHFRRAVRGIFPDSQLPDEFFLVVYRDGKFERSLQPTATFAGRKAPVVIIPQWKEKHTLEIGNYRKVVDEEFYQIGGKMIYAGRDIFIEDVPGLYRNIDMVFLDGEKECIYRDGFLMMEEKILKIEEPVDVVDGIVITRHRMGSKEIDDTILFRWNNFVLTASGFLVDIKGKWSWKVSNAPVEFSFQGDIFYVLDVCGFLRSYNLKTRQLLWEKKFEGAWGLDSSKDRVFLGAGDEVLVLNAQDGETIERMEADDFAVWKGRLLVYKDGKVDGEDMEGFFIRNFGMPLFVSGKRVVMFGTEKKEFEEVEKVRLFDWGTVIKAGDELWLIRRD,not soluble
4,MDNKSEKVTVNKEELRKRLTPVQYQVTQEAGTERPFTGCYNKHYEKGVYQCIVCHQDLFSSETKYDSGCGWPAFNDVLDKGKVTLHRDASIPGGNILLLIAHPERIRTEVRCARCNAHMGHVFEDGPKPTRKRYCINSASIEFVNADPATSSPPVATPTAAPIAQQLEHHHHHH,soluble
5,MDNVSNVRTGGCHCGAVRFEVTLSDGFDSIRRCTCSYCRMRGAVVAMAEMGGIKILQGEEVLTTYRFHTRAAQHFFCSRCGIYTHHQRRSNQNLYAVNVACLDGVSPFDFTEVPVMDGINHTNDTGQPTRRAGTLRFIASE,not soluble
6,MDPAKNEYGMGSTLTTLAYEKFAKAAKYNTQQNDLAAPTAQLDIAVSLSGFKEGDSNYPINPILKLTNNSTQTIPGGTRIEFLVPTSTSDTITDQSGMGLKVVESGGNQNSDGIAGEKDFHKAAFTLPTWKAWAPGSDVEVAMTYYLPAAGVPSGIRIISGTQTAGLKAEFPTLPEAVLEHHHHHH,soluble
7,MDPELLRQRTAFQKHAATTMAVQNKPTTAPNSHTTYSSEAAKAKKKKSSGPAQNLSKLPDFNNSVSNANALSNATNFSTMAKIVDYMKKRHLNNQQWPLTLQEILDELQIFDLSKRSLAFLQEALPNNPRLIMESEKFAFRPPYKIKGKTSLVAVARKHYQDGKGGILVSDLAECVANYDALLQQVSSEVIVVPTQVNKKKDRVVFYNDKEFTFPELEDDFKALWRHVSVDHLDEKKIEEYLQKKGLDAMKDLTPKVRMQAPLKRKAAKRRFNQKVQNEHMDGVLEDYE,soluble
8,MDPTQHRKAARPCDARRVLVLQGGGALGAYQAGAYQALCHHDFEPQWLAGISIGAINAAIIAGNPREQRVEKLKQFWEMASSPVPWQPLLRDDHVHSLFNETSAAMIATFGVPGFFTPRFPPTHLLPSGKPSNLSYYDTAPLRSTLERLVDFDRLNHNGIRLSVGAVNIATGNFVYFDTTKQIIGPEHIMASAALPPGFPAIEIDGEHYWDGGVASNTPLDYVL,not soluble
9,MDPVFSRLLETANSVILGKEQPIRLCICCLLARGHLLIEDVPGVGKTTLARTLAALLGLKYQRIQFTSDLLPADVLGSSIYDATTHGFRFHPGPVFNPMVLADEINRSTPRAQSALLEAMEERQVTVEGETRPLPEPFFVIATQNPNTQIGTFPLPESQLDRFLMRIELGYPDPRAERELLMGEERYALLPQLPVCLPAERLLALQSRVRDVHASSALLDYVQALLHFSRESPLYQNGLSPRAGLALLHAAKAWALMDGRAAVLPEDIQAVLPPVAGHRLKLASGGGGMAETVAPLLRDVAIPLEHHHHHH,not soluble
10,MDQKKDPSNNLTERRVSKVQRPNKKKVRNQVESLSRNLERNKEGQLLQTVSKGHLEADSGHSLGREKENGELGIRSIFYDKDWNPRGTAPSHYRNIPYNPATFKRRTEVQARLGNLENIKIPK,not soluble
11,MDQKSSSPQPAAQAPETKQAFPRKFVLAALEQSSDDAGWANLGNFGNYLNKLQPDFDSRLYGYKKLSDLVKARTDLFVTEERQVPGSTQKALYLRAKLEHHHHHH,soluble
12,MDQLSAMRAFVRVVETGSFSATGKEMNTSQTTISKKVAALENQIGVKLLTRSSRDHSLTPAGSDYYQTCVNILSELDEVEAKVRSKATLPQGSIRITAPVAFGRFLLAPIVAEFFQHYPDIKIDLLLNDKHVNLISEGIDVAIRAKNLEDSSLVARHLLDNPMYLFASPDYLEQYGEPKHPNELSTHNCLIYSGLQDAHIWNFNHGEKEYSVPVKGNFQSDNGDVLLDVALTGVGIVSLPIWMAKAHLTSGHLRQIMTKYSGQQLPINAIYPQRRYTPLKVRCFIDFLKQKLSE,not soluble
13,MDRFKVVVTDYEFQTLAPEQEVLSSLNVEFVATQCRTEEEVISACRDADAIINQYAPISAEVIAQLEKCKIISRYGVGVNTVDVDAATEKGIIVANVTDYSIDEVSDHALALLLSLARKIVKLNHEVKSGTWNFNVGKPIYRLRGRTLGLVGLGRIPQALAKKAQAFGLRVIAYDPYVPAKVADELNVQLLGLNDVFRQSDYISVHAPLTKETKGMISDEQFNLAKKELIIVNTARGPVIDESALIRALQEGKISGAGLDVTECEPIQPDNPLLKMENVVITPHVAWYSEESEKELKRKTAQNVADVLSGYYPTYLVNHNVKEKMRLKEKGLYV,soluble
14,MDRFNEYRIMWVLVLFDLPTETKKEKKAYADFRKNLQKDGFTMFQFSIYVRHCGSSENAAVHIKRVKSFLPEFGHVGIMCITDKQFGDIELFYGKKVQDVNTPGQQLELFLEHHHHHH,not soluble
15,MDRGVAQVASAPALGAGGRWFKSSRPDHFFIEVDKALLKEVKDMPIYRYVCEECGYETTVMHGINESPEVICEECGAKMKRTIGRVGIIFKGSGFYITDSRKSEKKKEAASASSEKKD,not soluble
16,MDRNLVQKGDAPPSKRSDPGTEFCVDIVVKGRKTEVPERFRKHVAEKLKLEKIQKLDGKVISLDVEVSKEPNPRQADRCDRVEITLRSRGPVIRAEAAASDPYAALDLAAEKLGARLRKQHDKRFSRRGARRISAAEVADHVPGAATLNGNGDVVPTEKQDGVPTKKIGSLEVQGDGPLVVREKTHVAAPMSLDQALYEMELVGHDFYLFVDSETKEPSVVYRRHAYDYGVIHLTTDTMVTQAHAPDAGDALGGLEHHHHHH,not soluble
17,MDRQGFVPAAYVKKLDSGTGKELVLALYDYQEKSPREVTMKKGDILTLLNSTNKDWWKVEVN,soluble
18,MDRSFCDAGCGVGSLSLPLAQRGAQAVYASDISAKMVEEARERASQIPNLNNIQLEVSDLASLSGRYDTVICLDVLIHYPESDAAAMLSHLCSLAEQRVLVSFAPKSPVLNVLKRIGQFFPGASKTTRAYQHSETAIAAALAANGFQVQRRAFNKAPFYFSLLLEAVRTALEHHHHHH,soluble
19,MDSFWFVQQWPPAVCSFQKSGSCPGSGLRTFTIHGLWPQQSGTSLTNCPGSPFDITKISHLQSQLNTLWPSVLRANNQQFWSHEWTKHGTCSESTFNQAAYFKLAVDMRNNYDIIGALRPHAAGPNGRTKSRQAIKGFLKAKFGKFPGLRCRTDPQTKVSYLVEVVACFAQDGSTLIDCTRDTCGANFIF,soluble
20,MDSIGGVLNTMKKNLLITLALIIMSHHSAYAQDELTYIPIPKANQIADLNDLDKDGVINARDLCAGTPIGAEVDNDGCETYLHKEEQYQLK,not soluble
21,MDTIQKRPRTRLSPEKRKEQLLDIAIEVFSQRGIGRGGHADIAEIAQVSVATVFNYFPTREDLVDDVLNKVENEFHQFINNSISLDLDVRSNLNTLLLNIIDSVQTGNKWIKVWFEWSTSTRDEVWPLFLSTHSNTNQVIKTMFEEGIERNEVCNDHTPENLTKMLHGICYSVFIQANRNSSSEEMEETANCFLNMLCIYK,not soluble
22,MDTKNLTAVQLMELDSCTRCGECVKWCPTYAASGQKPGLAPRDKILRWRQYMNKSYGLKAKLFGPTEIPQSELEEFKDDVHGCTTCGICATVCESGINTVELWESLRTNLVKKGIGPFGKQGMFPKLEHHHHHH,not soluble
23,MDTPSLTPWLSIVGISEEGWLALTPIAQQCILQADILVGSDRHFDLLPSLPGAEQWRWGSPFSATITQILERRGQSICILASGDPMCYGVGSLLAQRLPLTELQILPAPSAFSLACSRLGWALPEVETLSLCGRDPALLNALLYPGAKILALSADRSTPATIAEQLCQQGWGSSRLTVLEHLGGPKERKISEIAEHWSQPTIASLNTVAIECHARDRDLIVPPRLTGLPDAAYHHDGQLTKREVRAITLAALAPLPGQLLWDVGAGCGSIGIEWMRSDRRCRAIAIEQHPQRLQIITQNAIALGVPNLQVVAGSAPATLSGLPQPDAIFIGGGVTAPGVLDQCWQALPMGGRLVVNAVTLESEQVVLAGQQRWGGDLIRVAVQRAEPIGRFLGWKSLAPITQWTVKKTALEHHHHHH,not soluble
24,MDTQQIDVMVADASHEVYVDTILETIRNAAKVRGTGIAERTHEYVATKMKEGKAIIALCGDVFAGFTYIESWGNKQYVATSGLIVHPDFRGLGLAKRIKQASFQLARLRWPRAKIFSLTSGAAVMKMNTELGYVPVT,soluble
25,MDTQTLNSDLRVFMHHIYEFEKGVRSMVLATLANDDIPYAEERLRSRQIPYFAQPTPNTERTNLFFGCKECMEAIRLFVSGRSLNSLTPEEDFIIGAMLGYDICRQCERYCRRKSNS,soluble
26,MDTSQKYRSNNEVDSPQIEHDKQALPSIESLYWGLQQNQQIQGIEQTGEPNGDNQPPQLVIDQLSYDQQQQQPKQNCFDTHGNMDDNRGLYNLPQGAENGSGHLVATESHQLHPPNYNLQQAQTPPPTRHSQYVDAAPQAYGSGQLVPENQRQPESAPDRPYQIMNVGCNPQSAQQHAQMEIPTMSHQLIGTCHNWQSGSQQGTSQNRKDFAGMQSCYGKDQHHQSALNGYHQLQAQPNLYPQHVSNQRPQWAMDQLGYYQQHQQQGPTWSDQNGNEGDNGGLYNHPQGAENGSGHLAATESHQLLPPSNNLQQVQIPAPTRHSQYVGASHLAYGSGQLVPENQLQPEPAPDRSYRKMNVGCNSQYAQQHAQMDQVIGTCHNCQSDSQQGTSQNRDNLAGMKGCCVKDQYHEPAPSGYHPPQAQSNCYPNHPPNPNMNAGDQDRQHVQLNFYTDPGFQQNSHVPYEMQQGFQTTGMQGSYQQNNQPELLFDSNNGNQTVNNAPNGNYQEPVYPLLQEGPTWNNNDNHDYFPSDDSMSQTSQEPVSVESIRKKTKRAKNKLEARKSLQKKKDDLKASRKSWEEVKINHNNILSSNNSNEENIKTAFDQVLYPCFTNQQVIGTFNIIRSYDEVQEGFAQFENDKQNIISKVDYLMKTDRNLKKLRMAKEVSEKQWEQFETDKKNRKEDDKKNKINGGNKLNGKTKIVSSITIATRCSRSKDKKETDAFKHDAKVLKFESSKQTQIKLCLKKYCDKFYPGVRMLLQHNWKFLRDNALHSGQSVQLEKLIECLKTFHLTEHAEKEHNLENS,not soluble
27,MDVGKRLKEVREMYGLSQRELAKRVGLTNSTISMIERDAVSPSISSLKKILEGVSLTVTEFFTLEIPTESQVVFKKDTLVDVGSDGVELHLVGTPQPDSKLAFLIERYQPGSSTGKDMITHIGEEAGTVIEGSIEITVAGRSFKLTKGDSYKFSTSLPHKFKNTSKKVCKIISAHTPPSF,not soluble
